# Test results reported in patent publication US20230069055A1 (BOLT BIOTHERAPEUTICS, published 2023).
# Residue numbers refer to the chain shown, from its start.
# B1: PD-L1 binding agent 1 (antibody, V domains shown)
# VH: QVQLVQSGAEVKKPGASVKVSCKASGYTFSSDYMHWVRQAPGQGLEWMGWMSPYNGITGYAQKFQGRVTMTRDTSTSTVYMELSSLRSEDTAVYYCARDRFSGSYDYWGQGTLVTVSS
# VL: not shown
# B2: PD-L1 binding agent 4 (antibody, V domains shown)
# VH: QVQLVQSGAEVKKPGSSVKVSCKASGYTFTGYYIHWVRQAPGQGLEWMGGIIPIFGTASYAQKFQGRVTITADESTSTAYMELSSLRSEDTAVYYCARDGRFWSGYPDYWGQGTLVTVSS
# VL: DIQMTQSPSSLSASVGDRVTITCRASQGISNYLAWYQQKPGKAPKLLIYRASNLESGVPSRFSGSGSGTDFTLTISSLQPEDFATYYCQQSYSTPLTFGGGTKVEIK
# B3: PD-L1 binding agent 9 (antibody, V domains shown)
# VH: QVQLVQSGAEVKEPGASVKVSCKASGYTFTDHYLHWVRQAPGQGLEWMGWMNPNIGNTGYAQKFQGRVTMTRDTSTSTVYMELSSLRSEDTAVYYCAREPLQLGGFDYWGQGTLVTVSS
# VL: B2 VL with Q27E, G28S, N31S, Y32W, R50A, N53S, E55Q, G100Q, V104L
# B4: PD-L1 binding agent 7 (antibody, V domains shown)
# VH: QVQLVQSGAEVKKPGASVKVSCKASGYTFTSYYMHWVRQAPGQGLEWMGWMNPNSGNTGYAQKFQGRVTMTRDTSTSTVYMELSSLRSEDTAVYYCARDDWGGDWFDPWGQGTLVTVSS
# VL: DIQMTQSPSSLSASVGDRVTITCQASQDISNHLNWYQQKPGKAPKLLIYGASNLQRGVPSRFSGSGSGTDFTLTISSLQPEDFATYYCQQSYSTPITFGQGTRLEIK
# B5: PD-L1 binding agent 16 (antibody, V domains shown)
# VH: QVQLVQSGAEVKKPGASVKVSCKASGYTLPNYIHWVRQAPGQGLEWMGWIHPRSGATGYAPKFQGRVTMTRDTSTSTVYMELSSLRSEDTAVYYCARDSVFGLDYWGQGTLVTVSS
# VL: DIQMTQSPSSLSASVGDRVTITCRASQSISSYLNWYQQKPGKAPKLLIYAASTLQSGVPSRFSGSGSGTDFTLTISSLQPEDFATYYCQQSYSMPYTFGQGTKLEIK
# B6: PD-L1 binding agent 6 (antibody, V domains shown)
# VH: QVQLVQSGAEVKKPGASVKVSCKASGYTFTSHDINWVRQAPGQGLEWMGWMNPNSGNTGYAQKFQGRVTMTRDTSTSTVYMELSSLRSEDTAVYYCARDRWYMGSADYWGQGTLVTVSS
# VL: B2 VL with G28S, N31T, Y32W, R50A, N53T, E55Q, L96F, G100Q
# B7: PD-L1 binding agent 10 (antibody, V domains shown)
# VH: QVQLVQSGAEVKKPGASVKVSCKASGYTFTGYYMHWVRQAPGQGLEWMGWMNPNGGTTGYAQNFQGRVTMTRDTSTSTVYMELSSLRSEDTAVYYCAREGFGPNAFDIWGQGTTVTVSS
# VL: B2 VL with G28S, N31S, Y32W, R50A, E55Q, S91Y, L96Y, G100Q
# B8: PD-L1 binding agent 5 (antibody, V domains shown)
# VH: QVQLVQSGAEVKKPGASVKVSCKASGYTFSTHYMHWVRQAPGQGLEWMGWMNPNSGHAGSAQKFQGRVTMTRDTSTSTVYMELSSLRSEDTAVYYCARESIAVAGYDYWGQGTLVTVSS
# VL: B4 VL with Q24R, D28S, N31S, H32W, N34A, G50A, N53T, I96Y, R103K
# B9: PD-L1 binding agent 14 (antibody, V domains shown)
# VH: QVQLVQSGAEVKKPGASVKVSCKASGYNFSAYYVHWVRQAPGQGLEWMGWMNPNRGITDSAQKFQGRVTMTRDTSTSTVYMELSSLRSEDTAVYYCAREAYVAAFDIWGQGTTVTVSS
# VL: B2 VL with N31S, Y32W, R50A, N53S, E55Q
# B10: PD-L1 binding agent 3 (antibody, V domains shown)
# VH: QVQLVQSGAEVKKPGASVKVSCKASGYTFSSYYMHWVRQAPGQGLEWMGWMTTNSGITGYAQKFQGRVTMTRDTSTSTVYMELSSLRSEDTAVYYCAREGYSSGLDYWGQGTLVTVSS
# VL: not shown
# B11: PD-L1 binding agent 11 (antibody, V domains shown)
# VH: B4 VH with S31G, D100S, G102Y
# VL: B2 VL with G28S, I29V, S30G, N31S, Y32W, R50G, N53S, E55Q
# B12: PD-L1 binding agent 15 (antibody, V domains shown)
# VH: QVQLVQSGAEVKKPGASVKVSCKASGYTFTRHYVHWVRQAPGQGLEWMGWMNPNSGSAGYAQKFQGRVTMTRDTSTSTVYMELSSLRSEDTAVYYCARERGYNAFDYWGQGTLVTVSS
# VL: EIVMTQSPATLSVSPGERATLSCRASQSLSSSYLAWYQQKPGQAPRLLIYGASTRATGIPARFSGSGSGTEFTLTISSLQSEDFAVYYCHQYFTTPLTFGQGTRLEIK
# B13: 12 (antibody, V domains shown)
# VH: QVQLVQSGAEVKKPGASVKVSCKASGYTFTGYYMHWMRQAPGQGLEWIGWMSPYNGITGYAQKFQGRVTMTRDTSTSTVYMELSSLRSEDTAVYYCAREVIEVGMDVWGQGTTVTVSS
# VL: B4 VL with Q24R, D28S, N31S, H32W, N34A, G50A, N53H, R56S, I96Y
# B14: 13 (antibody, V domains shown)
# VH: QVQLVQSGAEVKKPGASVKVSCKASGYTFTNYYMHWVRQAPGQGLEWMGWMSPSSGITGYAQKFQGRVTMTRDTSTSTVYMELSSLRSEDTAVYYCAREAWFGELSTWGQGTLVTVSS
# VL: B2 VL with G28N, Y32F, A34N, R50A, N53S, E55Q, T94L, L96Y, G100Q
# B15: 45 (antibody, V domains shown)
# VH: B10 VH with M51I
# VL: not shown
# B16: 46 (antibody, V domains shown)
# VH: B8 VH with M51I
# VL: B4 VL with Q24R, D28S, N31S, H32W, N34A, G50A, N53T, I96Y, R103K
# B17: 47 (antibody, V domains shown)
# VH: B7 VH with M51I, G55S
# VL: B2 VL with G28S, N31S, Y32W, R50A, E55Q, S91Y, L96Y, G100Q
# B18: 48 (antibody, V domains shown)
# VH: B4 VH with M51I, P108Y
# VL: B4 VL
# B19: 49 (antibody, V domains shown)
# VH: B3 VH with E13K, M51I
# VL: B2 VL with Q27E, G28S, N31S, Y32W, R50A, N53S, E55Q, G100Q, V104L
# Legend:
# [1] = molecular target: PD-L1 on CHO-K1/PD-L1/alphaAPC stimulator cells (UniProt Q9NZQ7 19-290, limits assumed); test: cell-based or functional assay
# [2] = molecular target: T1, human PD-L1 (hPD-L1), endogenous on JIMT-1 cells (human, UniProt Q9NZQ7 19-290); test: flow cytometry, JIMT-1 cells with endogenous hPD-L1, fluorescent anti-human IgG Fc secondary, geometric MFI
# T1 construct: The assay used endogenous hPD-L1 on JIMT-1 cells; also called programmed death-ligand 1; CD274
# Description: Diluted binding agents were applied to JIMT-1 cells (˜1×10⁵-2×10⁵ per well) and incubated at 4° C. […] After unbound secondary antibody was washed out, cells were resuspended in FACS buffer plus 2% formaldehyde and analyzed by flow cytometry.
# T1 sequence (Q9NZQ7 19-290 limits assumed): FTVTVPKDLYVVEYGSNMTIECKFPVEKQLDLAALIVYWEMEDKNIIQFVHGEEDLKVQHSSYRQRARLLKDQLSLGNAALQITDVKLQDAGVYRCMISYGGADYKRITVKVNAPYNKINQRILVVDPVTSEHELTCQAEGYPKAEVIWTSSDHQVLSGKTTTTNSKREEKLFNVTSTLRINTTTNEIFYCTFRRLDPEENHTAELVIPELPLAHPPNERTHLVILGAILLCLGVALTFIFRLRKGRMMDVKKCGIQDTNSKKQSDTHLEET
# Chain of PD-L1 on CHO-K1/PD-L1/alphaAPC stimulator cells (Q9NZQ7 19-290 limits assumed): as above
Binder,PD-L1/PD-1 blockade EC50 (nM) [1],PD-L1/PD-1 blockade EC50 (ng/ml) [1],binding result [2]
B1,0.74 nM,106 ng/mL,–
B2,0.85 nM,124 ng/mL,–
B3,0.67 nM,97.3 ng/mL,–
B4,0.73 nM,106 ng/mL,–
B5,1.25 nM,181 ng/mL,–
B6,0.73 nM,106 ng/mL,–
B7,0.47 nM,67.4 ng/mL,–
B8,0.37 nM,54.3 ng/mL,–
B9,1.15 nM,166 ng/mL,–
B10,0.33 nM,47.3 ng/mL,–
B11,0.37 nM,53.6 ng/mL,–
B12,1.13 nM,164 ng/mL,–
B13,–,–,binds
B14,–,–,binds
B15,–,–,binds
B16,–,–,binds
B17,–,–,binds
B18,–,–,binds
B19,–,–,binds
